Experiments:
[1] = molecular target: T1, in vitro clot consisting of plasminogen and fibrin (Homo sapiens, UniProt P00747+P02671+P02675+P02679); test: Purified clot lysis activity for rt-PA; assay type: biochemical
T1 construct: Plasminogen kept frozen at or below −60° C. until use; purchased Biocell (fibrinogen); Calbiochem (thrombin)
Protocol: (7) Purified clot lysis activity for rt-PA. […] Samples were diluted to assay range (200-1000 ng/mL) in two concentrations with diluent. Dilutions were performed the day before the assay and diluted samples were stored at 2-8° C. until analysis the next day. rt-PA reference material was diluted similarly as an internal reference.
2. Purified Clot Lysis Test (Microcentrifugal Analyzer (Test 1) and Plate Reader (Test 2)):
The potency of the alteplase t-PA protein was assessed by the purified clot lysis assay described below. Samples were diluted to assay range (200-1000 ng/mL) in three or two concentrations with diluent. Dilutions were performed the day before the assay and diluted samples were stored at 2-8° C. until analysis the next day. Rt-PA reference material was diluted similarly as an internal reference.
The assay works as follows: Reagents are substances added to a solution of another substance to participate in a chemical reaction. In this case, contents of boat 1 will react with contents of boat 2 to form a standardized clot. […] As the clot breaks apart, there is a change in the absorbance (light) characteristics. The absorbance is plotted versus time. […]
The endpoint (lysis time) may be determined by a computer program or manually. For automatic calculation by computer, the endpoint is the time required to lyse the clot, which is determined automatically. For manual endpoint determination, the endpoint is defined as the first time point below 0.03 absorbance units where the change is less than 0.003 abs unit. Specifically, for manual determination, the endpoint was determined from the absorbance time data. The first absorbance point less than 0.0300 was located. The endpoint was determined as the time of the first absorbance value less than 0.0300 if the change in absorbance between the current absorbance and the subsequent absorbance was less than 0.0030. If the delta absorbance was greater than 0.0030, one moved to the next absorbance reading and determined the delta absorbance. […]
The mean lysis time for each standard curve point was calculated. […]

[2] = 2 mg of alteplase or 10,000 U of urokinase, dwell 2 hours, up to two treatments; p=0.013; Haire et al.; cited from earlier work
[3] = Visual inspection of alteplase diluted in NS; assay type: physicochemical
Protocol: Alteplase (2 mg/vial rt-PA) was diluted to a concentration of 0.01, 0.025, 0.05, and 0.1 mg/mL final protein concentration in 0.9% NaCl (Normal Saline, NS)-containing IV bags (Baxter and/or Abbott, 250 mL). Specifically, rt-PA, protein bulk, was diluted to 1 mg/mL (50-mg vial formulation equivalent, 0.004% TWEEN 80™ surfactant) with filtered MILLI-Q™ water, or a 100-mg vial rt-PA was reconstituted to 1 mg/mL (0.008-0.011% TWEEN 80™ surfactant) with Sterile Water for Injection, USP (SWFI) using a 60-cc BD syringe and an 18 G needle directly inserted into the rubber septum of the vial at the center of the cake. The vial was gently mixed by slow inversions or rolling action until the cake was totally dissolved. IV diluent (0.9% NaCl, NS) was withdrawn and replaced with the same amount of the reconstituted or diluted 1 mg/mL rt-PA as follows:
After dilution into the IV bags (n=2 for each concentration), the bags were gently mixed by inversion (about 20-24 times). A 10-mL aliquot was withdrawn from the inlet port of the IV bag using a 10-cc BD syringe and 22 G needle. An aliquot (t=0) was dispensed directly into a 20-cc Type I clear glass vial for visual inspection. […]
Each aliquot was examined under a light box equipped with a black and white background. […] The color and clarity of the aliquots were recorded accordingly.

T1 sequence (P00747 20-810 limits assumed): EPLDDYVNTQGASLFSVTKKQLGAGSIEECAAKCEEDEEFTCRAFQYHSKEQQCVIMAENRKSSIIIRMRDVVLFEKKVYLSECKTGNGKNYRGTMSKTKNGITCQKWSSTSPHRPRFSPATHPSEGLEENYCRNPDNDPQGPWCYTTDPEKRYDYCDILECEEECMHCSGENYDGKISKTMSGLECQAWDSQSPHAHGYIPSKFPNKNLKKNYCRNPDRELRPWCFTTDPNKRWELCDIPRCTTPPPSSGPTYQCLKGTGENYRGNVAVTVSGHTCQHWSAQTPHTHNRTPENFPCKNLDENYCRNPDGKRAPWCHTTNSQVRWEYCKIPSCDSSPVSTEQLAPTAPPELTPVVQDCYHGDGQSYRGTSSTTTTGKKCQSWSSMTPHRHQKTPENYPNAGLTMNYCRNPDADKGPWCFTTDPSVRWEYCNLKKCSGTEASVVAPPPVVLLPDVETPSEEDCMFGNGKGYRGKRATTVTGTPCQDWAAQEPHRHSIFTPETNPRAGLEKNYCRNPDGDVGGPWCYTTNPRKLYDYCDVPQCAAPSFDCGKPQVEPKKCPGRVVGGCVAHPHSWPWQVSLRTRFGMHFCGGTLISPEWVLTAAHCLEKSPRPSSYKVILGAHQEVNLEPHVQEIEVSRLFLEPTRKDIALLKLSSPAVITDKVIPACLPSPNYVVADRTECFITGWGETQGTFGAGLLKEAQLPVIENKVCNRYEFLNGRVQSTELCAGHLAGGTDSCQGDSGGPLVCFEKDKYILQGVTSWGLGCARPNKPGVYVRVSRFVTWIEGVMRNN
T1 sequence (P02671 36-629 limits assumed): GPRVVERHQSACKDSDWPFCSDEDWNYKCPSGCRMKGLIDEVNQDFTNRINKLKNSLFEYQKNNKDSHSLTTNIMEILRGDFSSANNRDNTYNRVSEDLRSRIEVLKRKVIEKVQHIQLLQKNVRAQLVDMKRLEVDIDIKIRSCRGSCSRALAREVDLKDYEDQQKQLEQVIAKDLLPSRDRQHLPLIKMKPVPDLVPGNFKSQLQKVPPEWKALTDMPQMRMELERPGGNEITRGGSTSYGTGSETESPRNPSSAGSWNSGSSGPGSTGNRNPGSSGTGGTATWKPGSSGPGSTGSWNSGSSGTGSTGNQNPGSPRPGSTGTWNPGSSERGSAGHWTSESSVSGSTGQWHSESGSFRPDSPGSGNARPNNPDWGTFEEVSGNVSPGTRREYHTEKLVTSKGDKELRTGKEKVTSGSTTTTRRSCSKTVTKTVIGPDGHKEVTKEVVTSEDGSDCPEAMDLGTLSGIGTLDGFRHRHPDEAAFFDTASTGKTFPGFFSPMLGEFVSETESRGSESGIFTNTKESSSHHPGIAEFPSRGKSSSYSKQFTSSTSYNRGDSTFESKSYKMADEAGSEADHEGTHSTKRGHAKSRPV
T1 sequence (P02675 45-491 limits assumed): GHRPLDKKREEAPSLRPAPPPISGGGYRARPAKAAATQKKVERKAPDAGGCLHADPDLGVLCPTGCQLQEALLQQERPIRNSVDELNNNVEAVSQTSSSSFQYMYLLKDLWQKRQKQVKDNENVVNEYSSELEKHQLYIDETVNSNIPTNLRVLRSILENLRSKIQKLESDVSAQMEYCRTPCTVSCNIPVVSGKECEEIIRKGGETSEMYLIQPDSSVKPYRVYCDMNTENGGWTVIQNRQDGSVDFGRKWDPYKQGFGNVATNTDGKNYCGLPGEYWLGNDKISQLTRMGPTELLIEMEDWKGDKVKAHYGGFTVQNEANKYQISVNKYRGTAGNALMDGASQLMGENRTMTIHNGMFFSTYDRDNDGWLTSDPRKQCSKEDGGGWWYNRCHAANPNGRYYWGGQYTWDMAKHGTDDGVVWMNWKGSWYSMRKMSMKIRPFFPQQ
T1 sequence (P02679 27-437 isoform P02679-2 limits assumed): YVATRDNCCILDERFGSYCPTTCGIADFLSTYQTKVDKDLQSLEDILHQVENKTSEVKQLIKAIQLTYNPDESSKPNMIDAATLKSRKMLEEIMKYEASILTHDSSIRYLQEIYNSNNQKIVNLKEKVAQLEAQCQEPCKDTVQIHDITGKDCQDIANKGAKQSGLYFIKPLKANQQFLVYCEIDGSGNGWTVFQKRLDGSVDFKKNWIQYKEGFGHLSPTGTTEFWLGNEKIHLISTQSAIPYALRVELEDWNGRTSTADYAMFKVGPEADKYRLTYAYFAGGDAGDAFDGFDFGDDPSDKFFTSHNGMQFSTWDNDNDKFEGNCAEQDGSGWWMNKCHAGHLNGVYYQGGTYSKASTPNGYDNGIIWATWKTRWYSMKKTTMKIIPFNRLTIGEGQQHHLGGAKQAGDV

Row | Substance | Lytic activity in clot lysis effectiveness test ([1]; diluted down to 0.01 mg/mL in normal saline) | Lytic activity after storage ([1]; diluted to 0.01, 0.02, and 0.05% mg/mL in 0.9% NaCl IV bags, after 24 hours of storage at ambient conditions) | Specific activities by the clot-lysis activity assay ([1]; fractions collected over 24 hours, all concentrations in NS, in the majority of cases) | Catheters with function restored [2] [%] | Visual inspection ([3]; 0.1 mg/mL in NS, immediately after dilution and throughout the infusion period) | Visual inspection ([3]; diluted to 0.01, 0.025, and 0.05 mg/mL with NS, initially and after 24 hours of infusion (no filter) at room temperature)
1 | alteplase t-PA: tissue plasminogen activator in a native form such as ACTIVASE® alteplase t-PA; in Example 7 diluted in 0.9% NaCl | lytically active | lytically active | greater than 90% | 89 | slightly cloudy solution | colorless, clear to slightly opalescent solutions
2 | urokinase |  |  |  | 59 |  | 

From patent publication US7829082B2, “Catheter composition and uses thereof” (Genentech, Inc., priority 2001, dated 2010)
